According to US20230357429A1 (JANUX THERAPEUTICS, published 2023):
Like-named read-outs stand apart in the source and are kept apart here. Blank lines part the entries; values can stand above or below the binder they belong to. Where no end group is shown, it is not given here.

How the values were obtained:
Peptide-65 = target: T1, Peptide-65 (cysteine pairing not given here; also: biotinylated, site not given here); experiment: ELISA, TCE on captured biotin-peptide
T1 construct: mask peptide for the CD3 scFv
T1 peptide: QGCGTIADPEPHCW

Peptide-68 [1] = target: T2, Peptide-68 (cysteine pairing not given here; also: biotinylated, site not given here); experiment: ELISA, TCE on captured biotin-peptide
T2 construct: mask peptide for the CD3 scFv
T2 peptide: DWCWYSPDNDGLCD

Peptide-69 [2] = target: T3, Peptide-69 (cysteine pairing not given here; also: biotinylated, site not given here); experiment: ELISA, TCE on captured biotin-peptide
T3 construct: mask peptide for the CD3 scFv
T3 peptide: SECLVDLQSDPCYW

Peptide-71 [3] = target: T4, Peptide-71 (cysteine pairing not given here; also: biotinylated, site not given here); experiment: ELISA, TCE on captured biotin-peptide
T4 construct: mask peptide for the CD3 scFv
T4 peptide: VDCGPDGDESILCY

Peptide-72 [4] = target: T5, Peptide-72 (cysteine pairing not given here; also: biotinylated, site not given here); experiment: ELISA, TCE on captured biotin-peptide
T5 construct: mask peptide for the CD3 scFv
T5 peptide: AYCGPEFDESVGCM

Peptide-74 [5] = target: T6, Peptide-74 (cysteine pairing not given here; also: biotinylated, site not given here); experiment: ELISA, TCE on captured biotin-peptide
T6 construct: mask peptide for the CD3 scFv
T6 peptide: ASQCLGPEWEVCPY

Peptide-75 [6] = target: T7, Peptide-75 (cysteine pairing not given here; also: biotinylated, site not given here); experiment: ELISA, TCE on captured biotin-peptide
T7 construct: mask peptide for the CD3 scFv
T7 peptide: GSACLGPEWEVCPY

[7] = target: T8, CD3 (biotinylated CD3 antigen) (human, UniProt P07766 23-126, limits assumed, biotinylated (site not stated)); experiment: ELISA, TCE on captured biotin-CD3
T8 construct: also called CD3ε; human CD3
T8 sequence (P07766 23-126 limits assumed): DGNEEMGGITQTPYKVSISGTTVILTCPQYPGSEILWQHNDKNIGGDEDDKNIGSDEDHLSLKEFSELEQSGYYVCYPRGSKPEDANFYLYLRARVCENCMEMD

Peptide-66 [8] = target: T9, Peptide-66 (cysteine pairing not given here; also: biotinylated, site not given here); experiment: ELISA, TCE on captured biotin-peptide
T9 construct: mask peptide for the CD3 scFv
T9 peptide: GSQCLGPEWEVCPY

Peptide-67 = target: T10, Peptide-67 (cysteine pairing not given here; also: biotinylated, site not given here); experiment: ELISA, TCE on captured biotin-peptide
T10 construct: mask peptide for the CD3 scFv
T10 peptide: VYCGPEFDESVGCM

Peptide-68 [9] = target: T2, Peptide-68; experiment: ELISA, TCE on captured biotin-peptide
Procedure: (§1) Binding was measured in a standard ELISA format. […] The TROP2 TCE constructs diluted in buffer were then added to the peptide coated plates. Bound TCEs were detected using a standard horse radish peroxidase conjugate secondary antibody. The ELISA signal was plotted versus the log-scale concentration of TCE. The concentrations of TCE required to observe half maximal binding signal (EC₅₀s) were calculated using Graphpad Prism software.

Peptide-69 [10] = target: T3, Peptide-69; experiment: ELISA, TCE on captured biotin-peptide
Procedure: as §1

Peptide-71 [11] = target: T4, Peptide-71; experiment: ELISA, TCE on captured biotin-peptide
Procedure: as §1

Peptide-72 [12] = target: T5, Peptide-72; experiment: ELISA, TCE on captured biotin-peptide
Procedure: as §1

Peptide-73 [13] = target: T11, Peptide-73 (cysteine pairing not given here; also: biotinylated, site not given here); experiment: ELISA, TCE on captured biotin-peptide
T11 construct: mask peptide for the CD3 scFv
T11 peptide: VYCGPEFDESVGCA

Peptide-74 [14] = target: T6, Peptide-74; experiment: ELISA, TCE on captured biotin-peptide
Procedure: as §1

Peptide-75 [15] = target: T7, Peptide-75; experiment: ELISA, TCE on captured biotin-peptide
Procedure: as §1

[16] = target: T8, CD3 (biotinylated CD3 antigen); experiment: ELISA: biotinylated CD3 captured on neutravidin plates, TCE titrated, HRP secondary antibody
Procedure: Wild-type and alanine mutated T cell engager (TCE) constructs were evaluated for their ability to bind CD3. The alanine mutated TCEs include single alanine mutations in the CDR3 light chain or CDR3 heavy chain of the CD3 binding domain. Binding to CD3 was evaluated using an ELISA format. […] TCE constructs diluted in buffer were then added to the CD3 captured plates. TCE binding was detected using a standard horse radish peroxidase secondary antibody. The concentration of TCE required to achieve 50% maximal signal (EC₅₀) was calculated.

[17] = target: T8, CD3 (biotinylated CD3 antigen); experiment: ELISA, TCE on captured biotin-CD3; remark: listed apart in the source
Procedure: as §1

Peptide-66 [18] = target: T9, Peptide-66; experiment: ELISA, TCE on captured biotin-peptide
Procedure: as §1

Peptide-70 = target: T12, Peptide-70 (cysteine pairing not given here; also: biotinylated, site not given here); experiment: ELISA, TCE on captured biotin-peptide
T12 construct: mask peptide for the CD3 scFv
T12 peptide: YLCGPDGDETLACY

Peptide-73 [19] = target: T11, Peptide-73; experiment: ELISA, TCE on captured biotin-peptide
Procedure: as §1
Peptide mask sequences were also evaluated for their binding affinities against TROP2 TCE sequences harboring alanine mutations in the CDR3 regions of either or both of the TROP2 and CD3 binding domains.

Peptide-76 = target: T13, Peptide-76 (cysteine pairing not given here; also: biotinylated, site not given here); experiment: ELISA, TCE on captured biotin-peptide
T13 construct: mask peptide for the CD3 scFv
T13 peptide: YLCGPDADETLACY

Peptide-77 = target: T14, Peptide-77 (cysteine pairing not given here; also: biotinylated, site not given here); experiment: ELISA, TCE on captured biotin-peptide
T14 construct: mask peptide for the CD3 scFv
T14 peptide: YLCGPDTDETLACY

- EC50 (Peptide-65): 6.92 nM
- EC50 (Peptide-68 [1]): 60.9 nM
- EC50 (Peptide-69 [2]): 6.94 nM
- EC50 (Peptide-71 [3]): 1.28 nM
- EC50 (Peptide-72 [4]): 1.36 nM
- EC50 (Peptide-74 [5]): 0.83 nM
- EC50 (Peptide-75 [6]): 1.05 nM
B1: TCE-11 (anti-CD3 scFv H101A; anti-TROP2 wt) (bispecific antibody)
light: DIQLTQSPSSLSASVGDRVSITCKASQDVSIAVAWYQQKPGKAPKLLIYSASYRYTGVPDRFSGSGSGTDFTLTISSLQPEDFAVYYCQQHYITPLTFGAGTKVEIKRTVAAPSVFIFPPSDEQLKSGTASVVCLLNNFYPREAKVQWKVDNALQSGNSQESVTEQDSKDSTYSLSSTLTLSKADYEKHKVYACEVTHQGLSSPVTKSFNRGEC
heavy: not shown
notes: scFv on the Fab heavy chain; also called TCE-11 (H101A)

- EC50 [7]: 1.24 nM
- EC50 (Peptide-66 [8]): 8.02 nM
- EC50 (Peptide-67): 5.78 nM
- EC50 (Peptide-68 [9]): 7.71 nM
- EC50 (Peptide-69 [10]): 0.76 nM
- EC50 (Peptide-71 [11]): 21.7 nM
- EC50 (Peptide-72 [12]): 5.78 nM
- EC50 (Peptide-73 [13]): 8.15 nM
- EC50 (Peptide-74 [14]): 5.9 nM
- EC50 (Peptide-75 [15]): 9.2 nM
- EC50 [16]: 0.601 nM
B2: TCE-33 (anti-CD3 scFv F240A; anti-TROP2 wt) (bispecific antibody)
light: DIQLTQSPSSLSASVGDRVSITCKASQDVSIAVAWYQQKPGKAPKLLIYSASYRYTGVPDRFSGSGSGTDFTLTISSLQPEDFAVYYCQQHYITPLTFGAGTKVEIKRTVAAPSVFIFPPSDEQLKSGTASVVCLLNNFYPREAKVQWKVDNALQSGNSQESVTEQDSKDSTYSLSSTLTLSKADYEKHKVYACEVTHQGLSSPVTKSFNRGEC
heavy: not shown
notes: scFv on the Fab heavy chain; also called TCE-33 (F240A)

- EC50 [17]: 0.83 nM
- EC50 (Peptide-65): 1.52 nM
- EC50 (Peptide-66 [18]): 0.63 nM
- EC50 (Peptide-69 [2]): 1.93 nM
- EC50 (Peptide-74 [5]): 0.66 nM
- EC50 (Peptide-75 [6]): 0.88 nM
B3: TCE-14 (anti-CD3 scFv F104A; anti-TROP2 wt) (bispecific antibody)
light: DIQLTQSPSSLSASVGDRVSITCKASQDVSIAVAWYQQKPGKAPKLLIYSASYRYTGVPDRFSGSGSGTDFTLTISSLQPEDFAVYYCQQHYITPLTFGAGTKVEIKRTVAAPSVFIFPPSDEQLKSGTASVVCLLNNFYPREAKVQWKVDNALQSGNSQESVTEQDSKDSTYSLSSTLTLSKADYEKHKVYACEVTHQGLSSPVTKSFNRGEC
heavy: not shown
notes: scFv on the Fab heavy chain; also called TCE-14 (F104A)

- EC50 (Peptide-70): 0.59 nM
- EC50 (Peptide-73 [19]): 4.11 nM
- EC50 (Peptide-76): 166 nM
- EC50 (Peptide-77): 1620 nM
B4: TCE-36 (anti-CD3 scFv H101A; anti-TROP2 F108A) (bispecific antibody)
light: DIQLTQSPSSLSASVGDRVSITCKASQDVSIAVAWYQQKPGKAPKLLIYSASYRYTGVPDRFSGSGSGTDFTLTISSLQPEDFAVYYCQQHYITPLTFGAGTKVEIKRTVAAPSVFIFPPSDEQLKSGTASVVCLLNNFYPREAKVQWKVDNALQSGNSQESVTEQDSKDSTYSLSSTLTLSKADYEKHKVYACEVTHQGLSSPVTKSFNRGEC
heavy: not shown
notes: scFv on the Fab heavy chain
